This is an account of results in patent US20210395340A1 (KINDRED BIOSCIENCES, published 2021).

The target of assay [1] is T1, canine IL13 with C-terminal poly-His tag (produced in 293 cells) (canine, UniProt Q9N0W9 19-131).
T1 sequence: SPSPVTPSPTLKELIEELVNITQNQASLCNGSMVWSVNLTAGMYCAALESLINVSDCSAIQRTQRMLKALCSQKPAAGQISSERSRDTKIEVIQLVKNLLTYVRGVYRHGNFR
Briefly: BLI (Octet). A general note: In BLI a coated tip is dipped into the sample, and binding shifts an interference pattern.

The target of assay [2] is T2, canine IL4 (Sino Biological Inc, Cat #70021-DNAE-5) (canine, UniProt O77762 25-132, limits assumed).
T2 sequence (looked up): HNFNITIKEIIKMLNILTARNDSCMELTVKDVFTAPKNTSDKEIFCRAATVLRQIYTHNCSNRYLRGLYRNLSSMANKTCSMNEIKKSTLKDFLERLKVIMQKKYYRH
Kind of assay: cell-based or functional assay.

B1: canine IL13RECD-IL4RECD-IgGB Fc (Fc fusion)
chain: TETQPPVTNLSVSVENLCTVIWTWDPPEGASPNCTLRYFSHFDNKQDKKIAPETHRSKEVPLNERICLQVGSQCSTNESDNPSILVEKCTPPPEGDPESAVTELQCVWHNLSYMKCTWLPGRNTSPDTNYTLYYWHSSLGKILQCEDIYREGQHIGCSFALTNLKDSSFEQHSVQIVVKDNAGKIRPSFNIVPLTSHVKPDPPHIKRLFFQNGNLYVQWKNPQNFYSRCLSYQVEVNNSQTETNDIFYVEEAKCQNSEFEGNLEGTICFMVPGVLPDTLNTVRIRVRTNKLCYEDDKLWSNWSQAMSIGENTDPTGGGSGSGSVKVLHEPSCFSDYISTSVCQWKMDHPTNCSAELRLSYQLDFMGSENHTCVPENREDSVCVCSMPIDDAVEADVYQLDLWAGQQLLWSGSFQPSKHVKPRTPGNLTVHPNISHTWLLMWTNPYPTENHLHSELTYMVNVSNDNDPEDFKVYNVTYMGPTLRLAASTLKSGASYSARVRAWAQTYNSTWSDWSPSTTWLNYYEPKRENGRVPRPPDCPKCPAPEMLGGPSVFIFPPKPKDTLLIARTPEVTCVVVDLDPEDPEVQISWFVDGKQMQTAKTQPREEQFNGTYRVVSVLPIGHQDWLKGKQFTCKVNNKALPSPIERTISKARGQAHQPSVYVLPPSREELSKNTVSLTCLIKDFFPPDIDVEWQSNGQQEPESKYRTTPPQLDEDGSYFLYSKLSVDKSRWQRGDTFICAVMHEALHNHYTQESLSHSPGK
notes: also called canine IL13RECD-IL4RECD-Fc; IL13R ECD/IL4R ECD contiguous polypeptide
As for B1, in assay [1], the binding result is listed as “binds”.

B2: canine IL4RECD-IL13RECD-IgGB Fc (Fc fusion)
chain: SGSVKVLHEPSCFSDYISTSVCQWKMDHPTNCSAELRLSYQLDFMGSENHTCVPENREDSVCVCSMPIDDAVEADVYQLDLWAGQQLLWSGSFQPSKHVKPRTPGNLTVHPNISHTWLLMWTNPYPTENHLHSELTYMVNVSNDNDPEDFKVYNVTYMGPTLRLAASTLKSGASYSARVRAWAQTYNSTWSDWSPSTTWLNYYEPGGGSGTETQPPVTNLSVSVENLCTVIWTWDPPEGASPNCTLRYFSHFDNKQDKKIAPETHRSKEVPLNERICLQVGSQCSTNESDNPSILVEKCTPPPEGDPESAVTELQCVWHNLSYMKCTWLPGRNTSPDTNYTLYYWHSSLGKILQCEDIYREGQHIGCSFALTNLKDSSFEQHSVQIVVKDNAGKIRPSFNIVPLTSHVKPDPPHIKRLFFQNGNLYVQWKNPQNFYSRCLSYQVEVNNSQTETNDIFYVEEAKCQNSEFEGNLEGTICFMVPGVLPDTLNTVRIRVRTNKLCYEDDKLWSNWSQAMSIGENTDPTPKRENGRVPRPPDCPKCPAPEMLGGPSVFIFPPKPKDTLLIARTPEVTCVVVDLDPEDPEVQISWFVDGKQMQTAKTQPREEQFNGTYRVVSVLPIGHQDWLKGKQFTCKVNNKALPSPIERTISKARGQAHQPSVYVLPPSREELSKNTVSLTCLIKDFFPPDIDVEWQSNGQQEPESKYRTTPPQLDEDGSYFLYSKLSVDKSRWQRGDTFICAVMHEALHNHYTQESLSHSPGK
notes: The IL4R ECD precedes the IL13R ECD, followed by canine IgG-B Fc; also called canine IL4RECD-IL13RECD-Fc; SINK
In the case of B2, the binding result in assay [1] is given as “binds”. In assay [2], the “TF1 cell proliferation assay (CellTiter-Glo luminescence), IC50” value was found to be 2 nM.
